The supplement of paper PMC10724198

Key:
Saccharomyces cerevisiae [1] = experiment: protein stability index of tFT-peptide fusion in wild type (PSI (0-1 scale)); higher = more stable (slower turnover); details: genetic background: wild type
Protocol: (§1)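 MPS profiling in S. cerevisiae of two library types built from selected 12-aa C-degron peptides (IN1, IN2, LN1, LN3, VN2, R1-R5, W1-W3, Atg1 and Rpa12 C-termini): saturation mutagenesis libraries and C-terminal +1 capping libraries (13 aa). Each peptide is fused to the C-terminus of a sfGFP-mCherry timer, after a GGGS linker. Cells are FACS-sorted into 8 mCherry/sfGFP bins and sequenced. PSI runs from 0 (unstable) to 1 (stable), measured once in wild type and in the das1Δ or doa10Δ background.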

Saccharomyces cerevisiae [2] = experiment: protein stability index of tFT-peptide fusion in deletion strain of DAS1 (PSI (0-1 scale)); higher = more stable (slower turnover)
Protocol: as §1
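For protein stability index of tFT-peptide fusion in deletion strain of DAS1 in this document: PSI is a weighted mean of each variant's read distribution over the sorted stability bins, computed only for variants having over 10 reads in total.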
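For protein stability index of tFT-peptide fusion in wild type in this document: PSI derived as read-weighted mean over the 8 sorting bins, only variants exceeding 10 total reads kept, mCherry placed adjacent to the peptide and sfGFP distal.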

Row | Sequence | protein stability index (Saccharomyces cerevisiae [1]) | protein stability index (Saccharomyces cerevisiae [2])
1 | KSLAASFWRVVG | 0.112 | 0.673
2 | LDVYLSCVACIN | 0.134 | 0.231
3 | LKALRQKMNHQN | 0.213 | 0.672
4 | LKFLRQKMNHQN | 0.166 | 0.697
5 | LKHKKGQKQKIN | 0.094 | 0.576
6 | LKICRQKMNHQN | 0.254 | 0.722
7 | LKIFRQKMNHQN | 0.191 | 0.669
8 | LKIHRQKMNHQN | 0.226 | 0.673
9 | LKIIRQKMNHQN | 0.204 | 0.718
10 | LKILFQKMNHQN | 0.267 | 0.688
11 | LKILRAKMNHQN | 0.223 | 0.665
12 | LKILRQCMNHQN | 0.288 | 0.686
13 | LKILRQKCNHQN | 0.295 | 0.663
14 | LKILRQKINHQN | 0.23 | 0.668
15 | LKILRQKMKHQN | 0.568 | 0.687
16 | LKILRQKMLHQN | 0.227 | 0.643
17 | LKILRQKMNAQN | 0.208 | 0.671
18 | LKILRQKMNHQN | 0.192 | 0.674
19 | LKILRQKMNHQNK | 0.656 | 0.664
20 | LKILRQKMNHQNY | 0.595 | 0.705
21 | LKILRQKMNHQQ | 0.193 | 0.691
22 | LKILRQKMNKQN | 0.246 | 0.656
23 | LKILRQKMNRQN | 0.21 | 0.68

Row | Sequence | protein stability index (Saccharomyces cerevisiae [1]) | protein stability index (Saccharomyces cerevisiae [2])
24 | LKILRQKMNVQN | 0.226 | 0.661
25 | LKILRQSMNHQN | 0.238 | 0.661
26 | LKILRRKMNHQN | 0.216 | 0.648
27 | LNVYLSCVACIN | 0.043 | 0.188
28 | LQILRQKMNHQN | 0.117 | 0.701
29 | LTVYLSCVACIN | 0.0165 | 0.0375
30 | LVVYHSCVACIN | 0.181 | 0.313
31 | LVVYLACVACIN | 0.0186 | 0.041
32 | LVVYLCCVACIN | 0.0154 | 0.0405
33 | LVVYLDCVACIN | 0.0395 | 0.119
34 | LVVYLSCQACIN | 0.00888 | 0.0148
35 | LVVYLSCVAAIN | 0.0144 | 0.0388
36 | LVVYLSCVACEN | 0.132 | 0.132
37 | LVVYLSCVACIE | 0.0121 | 0.0184
38 | LVVYLSCVACINF | 0.024 | 0.0394
39 | LVVYLSCVACINL | 0.0224 | 0.0337
40 | LVVYLSCVACPN | 0.0732 | 0.0988
41 | LVVYLSCVACRN | 0.0192 | 0.0464
42 | LVVYLSCVMCIN | 0.0111 | 0.0156
43 | LVVYLSCVPCIN | 0.237 | 0.305
44 | LYVYLSCVACIN | 0.0152 | 0.0144
45 | NKILRQKMNHQN | 0.113 | 0.701
46 | PDKFNHLIKLLN | 0.117 | 0.622

Row | Sequence | protein stability index (Saccharomyces cerevisiae [1]) | protein stability index (Saccharomyces cerevisiae [2])
47 | PDKPNHLIKLLN | 0.199 | 0.607
48 | PDKRGHLIKLLN | 0.113 | 0.593
49 | PDKRHHLIKLLN | 0.113 | 0.705
50 | PDKRIHLIKLLN | 0.0865 | 0.589
51 | PDKRNCLIKLLN | 0.148 | 0.586
52 | PDKRNELIKLLN | 0.115 | 0.608
53 | PDKRNGLIKLLN | 0.222 | 0.614
54 | PDKRNHGIKLLN | 0.41 | 0.587
55 | PDKRNHLHKLLN | 0.265 | 0.59
56 | PDKRNHLIKHLN | 0.0778 | 0.601
57 | PDKRNHLIKLLD | 0.666 | 0.611
58 | PDKRNHLIKLLE | 0.579 | 0.606
59 | PDKRNHLIKLLNH | 0.142 | 0.669
60 | PDKRNHLIKLLNK | 0.655 | 0.67
61 | PDKRNHLIKLLNN | 0.137 | 0.666
62 | PDKRNHLIKLRN | 0.623 | 0.672
63 | PDKRNHLISLLN | 0.438 | 0.614
64 | PDKRNHLIWLLN | 0.0587 | 0.705
65 | PDKRNHLIYLLN | 0.0898 | 0.702
66 | PDKRNHMIKLLN | 0.0922 | 0.625
67 | PDKRNHNIKLLN | 0.172 | 0.602
68 | PDKRNHPIKLLN | 0.282 | 0.574
69 | PDKRNYLIKLLN | 0.119 | 0.601

Row | Sequence | protein stability index (Saccharomyces cerevisiae [1]) | protein stability index (Saccharomyces cerevisiae [2])
70 | PDKRQHLIKLLN | 0.065 | 0.562
71 | PDKRWHLIKLLN | 0.0628 | 0.633
72 | PDPRNHLIKLLN | 0.15 | 0.582
73 | PDWRNHLIKLLN | 0.144 | 0.627
74 | PFKRNHLIKLLN | 0.0943 | 0.587
75 | PNKRNHLIKLLN | 0.0744 | 0.597
76 | PSFAASFWRVVG | 0.148 | 0.703
77 | PSLAAPFWRVVG | 0.182 | 0.696
78 | PSLAAQFWRVVG | 0.14 | 0.696
79 | PSLAASFNRVVG | 0.643 | 0.673
80 | PSLAASFWFVVG | 0.658 | 0.666
81 | PSLAASFWKVVG | 0.31 | 0.674
82 | PSLAASFWRIVG | 0.143 | 0.675
83 | PSLAASFWRQVG | 0.146 | 0.653
84 | PSLAASFWRTVG | 0.172 | 0.698
85 | PSLAASFWRVEG | 0.672 | 0.687
86 | PSLAASFWRVHG | 0.193 | 0.686
87 | PSLAASFWRVVGA | 0.545 | 0.681
88 | PSLAASFWRVVH | 0.448 | 0.695
89 | PSLAASFWRVVI | 0.263 | 0.716
